Here are results for 13 molecules from PMC3519385 (Structure (London, England : 1993), 2012).

Data set [1] concerns the molecule itself. Nature of the data set: SEC-MALS. (In general: In gel filtration, larger molecules generally elute earlier.)
Data set [2] concerns the molecule itself. The data set can be described thus: SEC-MALS. This is another data set of the same source.
Data set [3] has as its target T1, Gemin2 (UniProt O14893 1-280).
T1 sequence (looked up): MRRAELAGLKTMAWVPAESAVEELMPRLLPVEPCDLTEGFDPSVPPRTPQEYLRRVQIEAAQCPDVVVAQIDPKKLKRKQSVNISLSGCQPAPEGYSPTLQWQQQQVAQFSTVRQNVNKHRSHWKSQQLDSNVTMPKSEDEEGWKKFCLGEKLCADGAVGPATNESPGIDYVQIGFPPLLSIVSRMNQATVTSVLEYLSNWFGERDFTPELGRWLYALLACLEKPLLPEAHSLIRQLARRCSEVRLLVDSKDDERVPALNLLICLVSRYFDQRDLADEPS
The data set can be described thus: co-purification.

Data set [4] deals with the molecule itself.

Values joined by “and” are separate entries in the source; they are usually repeats but may differ in a detail not shown here. Equal entries are not always repeated. Where two headings read alike, the source gives them in different places.

Broadly, the stoichiometry N is a count of units in the complex or per binding partner. As to DSLDDADALASMLISWYMSGYHTGYYMGFRQNQKEGRCSHSLN (domain or fragment, human, UniProt Q16637 252-294, looked up) [MBP-YG^252–294 G261A], the “stoichiometry N” value in data set [1] is at least 4.
Same read-out and setting: the same measure for DSLDDADALGSMLISWYMSGYHTGYYMGFRQAQKEGRCSHSLN (domain or fragment, human, UniProt Q16637 252-294, looked up) [MBP-YG^252–294 N283A]: at least 4; for DSLDDADALGSMLISWYMAGYHTGYYMGFRQNQKEGRCSHSLN (domain or fragment, human, UniProt Q16637 252-294, looked up) [MBP-YG^252–294 S270A]: at least 4.
DSLDDADALGSMLISWYMSGYHTGYYMGFRQNQKEGRCSHSLN (domain or fragment, human, UniProt Q16637 252-294, looked up) [MBP-YG^252–294]: the “stoichiometry N” value in data set [2] worked out at 4.
In the case of DSLDDADALGSMLISWYMSGYHTGYYMAFRQNQKEGRCSHSLN (domain or fragment, human, UniProt Q16637 252-294, looked up) [MBP-YG^252–294 G279A], the “stoichiometry N” value in data set [1] is at least 4.
As for DSLDDADALGSMLISWYMSGYHTGYYMCFRQNQKEGRCSHSLN (domain or fragment, human, UniProt Q16637 252-294, looked up) [MBP-YG^252–294 G279C], the “stoichiometry N” value in data set [2] was at least 4.
For the molecule DSLDDADALGIMLISWYMSGYHTGYYMGFRQNQKEGRCSHSLN (domain or fragment, human, UniProt Q16637 252-294, looked up) [MBP-YG^252–294 S262I], in data set [2], the “stoichiometry N” value was at least 4.
As for DSLDDADALGSMLISWYMSGYHIGYYMGFRQNQKEGRCSHSLN (domain or fragment, human, UniProt Q16637 252-294, looked up) [MBP-YG^252–294 T274I], the “stoichiometry N” value in data set [2] stood at 4.
As for DSLDDADALGSMLISWYMSGYRTGYYMGFRQNQKEGRCSHSLN (domain or fragment, human, UniProt Q16637 252-294, looked up) [MBP-YG^252–294 H273R], the “stoichiometry N” value in data set [2] came out at 4.
Consider DSLDDADALGGMLISWYMSGYHTGYYMGFRQNQKEGRCSHSLN (domain or fragment, human, UniProt Q16637 252-294, looked up) [MBP-YG^252–294 S262G], for which the “stoichiometry N” value in data set [2] turned out to be 4.

B1: SMN Δexon5 (SMNΔ5) (natural protein, human, UniProt Q16637-2 1-262, looked up)
chain: MAMSSGGSGGGVPEQEDSVLFRRGTGQSDDSDIWDDTALIKAYDKAVASFKHALKNGDICETSGKPKTTPKRKPAKKNKSQKKNTAASLQQWKVGDKCSAIWSEDGCIYPATIASIDFKRETCVVVYTGYGNREEQNLSDLLSPICEVANNIEQNAQENENESQVSTDESENSRSPGNKSDNIKPKSAPWNSFLPPPPPMPGPRLGPGKIIPPPPPICPDSLDDADALGSMLISWYMSGYHTGYYMGFRQNQKEGRCSHSLN
With B1, the “stoichiometry N” value in data set [3] stood at 1.
Consider MLISWYMSGYHTGYYMGFRQNQKEGRCSHSLN (domain or fragment, human, UniProt Q16637 263-294, looked up) [MBP-YG^263–294], for which the “stoichiometry N” value in data set [4] stood at 2.

B2: MBP-SMN^229–294 (domain or fragment, human, UniProt Q16637 229-294, looked up)
chain: LSCWLPPFPSGPPIIPPPPPICPDSLDDADALGSMLISWYMSGYHTGYYMGFRQNQKEGRCSHSLN
On to B2, for which the “stoichiometry N” value in data set [4] was 4 and 8.
